# According to patent publication US20230270861A1, “Inhibitors of the Artemin Pathway for Treatment of Cancer” (The University of Chicago, priority 2020, published 2023):
# Columns and labels:
# LLC tumor = test: Tumor growth of LLC tumor-bearing mice treated with IR or anti-PD-L1 plus test agent; assay type: in vivo, mouse; conditions: LLC tumor-bearing B6 mice; agent combined with 20 Gy IR or anti-PD-L1
# Experimental: Tumor models and treatments. 1×10^6 MC38, LLC, or B16-SIY tumor cells were subcutaneously injected into the flank of mice. On day 10 after tumor inoculation, tumors were either irradiated with one dose of 20 Gy or mice received sham treatment. For anti-PD-L1 treatment experiments, 200 μg anti-PD-L1 (10F.9G2) or isotype control was given by i.p. every three days for a total of four times starting on day 10 after tumor inoculation. For type I IFN blockade experiments, 200 μg anti-IFNAR1 were intratumorally injected on days 0 and 2 after irradiation. For CD4 or CD8 T cell depletion experiments, 200 μg anti-CD4 or anti-CD8 mAb was delivered four times by i.p. injection every 3 days starting 1 day before therapies. Artemin-neutralizing antibody was delivered i.t. at 1 μg/mouse starting on day of irradiation, every 2 days for 7 doses. For Ter-cell depletion, anti-ter119 was injected i.p. at 20 μg/mouse every 2 days for 4 doses. For Ter-cell or artemin treatment groups, mice were administered 1×10^7 purified Ter cells i.v. every other day for a total of three doses, or mice were treated with 0.5 μg/mouse artemin i.t. every other day starting on day 0 of therapies throughout the studies. For EPO treatment groups, mice were treated with 20 U/mouse EPO i.v. every other day throughout the studies, starting on day 0 of the therapies. IFN-γ was administered through intrasplenic injection on day 15 post tumor implantation at 2 μg/mouse for 1 dose. LOXO-292 was administered by oral gavaging at 100 μg/mouse/day throughout the entire studies, starting on day 0 of the therapies. Spleens were harvested on day 20 or at indicated times post-inoculation for analysis of spleen size or splenic cells. Tumor size was monitored and calculated with the formula for area (length×width).
# MC38 cells = test: Colony formation assay of irradiated MC38 cells; assay type: cell-based, mouse; conditions: 0, 1 or 3 Gy; 100 ng/mL artemin
# Experimental: FIG. 40. Colony formation assay of MC38 cells treated with 0, 1, or 3 Gy irradiation. MC38 cells were either co-cultured with 2×10^6 Ter-cells (left) sorted from spleens of tumor-bearing mice, or treated with 100 ng/mL artemin (right). Representative data are shown from three experiments. Data are represented as mean±SD. *p<0.05, **p<0.01, and ***p<0.001.
# MC38-OTI-zsGreen cells = test: CD8+ T cell mediated killing (apoptosis) of MC38-OTI-zsGreen cells; assay type: cell-based, mouse; conditions: 100 ng/mL artemin for 6 h
# Experimental: FIGS. 41A-41B. (FIG. 41A) Apoptosis of MC38 cells as analyzed by flow cytometry. 1×10^5 MC38-OTI-zsGreen cells were co-cultured with 2×10^5 CD8^+ T cells purified from OTI mice in 96-well U bottomed plates. Tumor cells were either co-cultured with 2×10^5 Ter-cells sorted from spleens of tumor-bearing mice or treated with 100 ng/mL artemin for 6 h. Representative data are shown from three experiments. Data are represented as mean±SD. *p<0.05, **p<0.01 and ***p<0.001. (FIG. 41B) Apoptosis of MC38 cells was analyzed by flow cytometry. 1×10^5 MC38-OTI-zsGreen cells were co-cultured with 2×10^5 CD8+ T cells purified from OTI mice in 96-well U bottom plates. Tumor cells were either co-cultured with 2×10^5 Ter-cells sorted from spleen of tumor-bearing mice or treated with 100 ng/mL artemin (ARTN) for 6 h. Representative data are shown from two or three experiments conducted with 3-5 mice or samples per group.
# CD8 T cells = test: In vitro CD8 T cell treatment with artemin; assay type: cell-based, mouse; conditions: 24 hours
# Experimental: (§1) FIGS. 71A-71I. […] (FIGS. 71A-71E) CD8 T cells were purified from WT spleen and treated with recombinant artemin for 24 hours (150 ng/mL for FIGS. 71B, 71C, 71D, and 71E). T proliferation was examined (FIG. 71A), and the indicated effector molecules were analyzed by flow cytometry (FIGS. 71B, 71C, and 71D) and q-PCR (FIG. 71E). (FIGS. 71F-71I) MC38 murine colon cancer tumors were treated with artemin (i.t.), and single cell suspensions of tumors were stained with indicated markers and examined by flow cytometry (FIGS. 71F, 71G, 71H, and 71I).
# In vitro testing: CD8 T cell treatment with artemin. CD8 T cells were isolated from spleens of naïve mice. CD8 T cells were cultured with T cell activation beads for 3 days and labeled with DNA dye cellTrace violet, followed by co-culturing with 150 ng/mL recombinant artemin for 24 hours. T cells were then washed and stimulated by stimulation cocktail and protein transport cocktail for 6 hours before being subjected to intracellular antibody staining.
# [1] = tested on: MC38 murine colon cancer tumors; test: In vivo MC38 murine colon cancer treatment with artemin (i.t.), flow cytometry of tumor cells; parameters: species or system mouse
# Experimental: as §1
# FIGS. 72A-72C. […] MC38 tumor were digested into single cell suspension and stained with markers that characterize T cells, DCs, and MDSCs. Flow cytometry was performed. […] (FIG. 72B) Changes in CD4 T cells.
# In vivo testing: MC38 murine colon cancer treatment with artemin. Established MC3 8 murine colon cancer tumors were treated with artemin by intra-tumoral injection. Tumors were digested into single cell suspension, stimulated and stained with intracellular antibodies. Cells were analyzed by flow cytometry.
# [2] = tested on: CD8 T cells and bone marrow derived MDSCs; test: qPCR of possible artemin receptors in CD8 T cells and MDSCs co-cultured with artemin; assay type: cell-based, mouse; conditions: co-culture with artemin
# Excerpt: (§2) FIGS. 73A-73D. Study of the effects of artemin and radiation on mRNA expression of possible artemin receptors in different immune cells. (FIG. 73A) mRNA level of known GDNF receptors in CD8+ T cells after co-culture with artemin. (FIG. 73B) mRNA level of known GDNF receptors in MDSCs (CD11b+Ly6C+) cells. GFRα1, GFRα3 and NCAM expression in DC (FIG. 73C) and natural killer (NK) cells (FIG. 73D) in tumors responding to artemin or/and radiation treatments. R1, GFRα1; R3, GFRα3.
# Quantitative PCR (qPCR). Expression of possible artemin receptors GFRα1 (primers: SEQ ID NOs: 5, 6), GFRα3 (primers: SEQ ID NOs: 7, 8), Syndecan 3 (primers: SEQ ID NOs: 9, 10), NCAM (primers: SEQ ID Nos: 11, 12), and RET (SEQ ID Nos: 13, 14) was analyzed by qPCR in CD8 T cells and bone marrow derived MDSCs during co-culture with artemin.
# [3] = tested on: Lewis lung carcinoma (LLC) tumors; test: Flow cytometry of GFRα1, GFRα3 and NCAM in LLC tumors treated with artemin and/or IR; assay type: in vivo, mouse
# Excerpt: as §2
# Radiation (IR) treatment analysis. We treated established Lewis lung carcinoma (LLC) tumors with control, artemin, IR, and artemin+IR (20 Gy IR). Flow cytometry with staining of GFRα1, GFRα3 and NCAM receptors was performed.
molecule,measurement,setting,value
artemin: Recombinant mouse artemin (1085-AR) from R&D Systems; neurotropic factor of the GDNF family (protein) AGTRSSRARTTDARGCRLRSQLVPVSALGLGHSSDELIRFRFCSGSCRRARSQHDLSLASLLGAGALRSPPGSRPISQPCCRPTRYEAVSFMDVNSTWRTVDHLSATACGCLG,Tumor growth: influence on the therapeutic effect of IR and PD-L1 blockade,LLC tumor,diminished the anti-tumor effects of IR and PD-L1 blockade
same,Radio-resistance of MC38 tumor cells (colony formation),MC38 cells,increased the radio-resistance
same,CD8+ T cell mediated killing of tumor cells,MC38-OTI-zsGreen cells,impaired
same,CD8 T cell proliferation,CD8 T cells; 200 ng/mL,reduced CD8 T cell proliferation
same,"Production of IFN-γ, granzyme B and TNFα in T cells (protein and RNA level)",CD8 T cells,decreases in production
same,CD4 T helper cell numbers,[1],not significantly changed
same,PD-L1 expression on dendritic cells (CD11C+) and MDSCs (CD11b+Ly6C+),[1],induced PD-L1 expression
same,Treg percentage in CD4 T cells,[1],significantly increased
same,Frequency of total CD8 T cell among CD45+ cells,[1]; artemin i.t.,did not alter frequency
same,IFN-γ production in intratumoral T cells,[1]; artemin i.t.,not significant
same,Production of granzyme B and TNFα proteins in intratumoral T cells,[1]; artemin i.t.,significantly reduced
same,"Expression of exhaustion markers PD-1, LAG3 and TIM3",[1]; intratumoral T cells,did not change the expression
same,GFRα1 mRNA in MDSC cells,[2],induction of GFRα1
same,GFRα3 mRNA in CD8 T cells,[2],Induction of GFRα3
same,GFRα3 expression on NK cells,[3],induces GFRα3 expression
